In PMC6386500 (PLoS ONE, 2019):

What was measured:
[1] = molecular target: T1, MsCS (citrate synthase from Metallosphaera sedula) (Metallosphaera sedula, UniProt A4YGX6); assay: DTNB absorbance at […] nm, inhibition kinetics; format: biochemical
T1 construct: gene Msed_1522; C-terminal 6xHis tag (pET-30a, NdeI/XhoI), E. coli BL21(DE3)-T1R; homodimer about 85 kDa; modelled domains Met1-Arg370; His214, His253, Asp307 catalytic

[2] = molecular target: Citrate synthase from Metallosphaera sedula (Metallosphaera sedula); assay: SEC; HiPrep 26/60 Sephacryl S-300 HR column, buffer A (40 mM Tris-HCl, pH 8.0), 277 K; eluted at approximately 85 kDa
purified protein [3] = substrate: CC(=O)SCCNC(=O)CCNC(=O)[C@H](O)C(C)(C)COP(=O)(O)OP(=O)(O)OC[C@H]1O[C@@H](n2cnc3c(N)ncnc32)[C@H](O)[C@@H]1OP(=O)(O)O; assay: purified protein; format: biochemical, Metallosphaera sedula; settings: 100 mM potassium phosphate pH 8.0, 150 mM NaCl, 50 uM DTNB, 298 K, oxaloacetate concentration not stated, no inhibitor, 25.0 °C
purified protein [4] = substrate: O=C(O)CC(=O)C(=O)O; assay: purified protein; format: biochemical, Metallosphaera sedula; settings: 0.5 mM acetyl-CoA, 100 mM potassium phosphate pH 8.0, 150 mM NaCl, 50 uM DTNB, 298 K, no inhibitor, 25.0 °C

## NC(=O)C1=CN([C@@H]2O[C@H](COP(=O)(O)OP(=O)(O)OC[C@H]3O[C@@H](n4cnc5c(N)ncnc54)[C@H](O)[C@@H]3O)[C@@H](O)[C@H]2O)C=CC1 [NADH]
[1]
  Ki: 4.41 mM

## Nc1ncnc2c1ncn2[C@@H]1O[C@H](COP(=O)(O)OP(=O)(O)OP(=O)(O)O)[C@@H](O)[C@H]1O [ATP]
[1]
  Ki: 4.34 mM

## Citrate synthase from Metallosphaera sedula (enzyme)
[2]
  stoichiometry N: 2

B1: MsCS (citrate synthase from Metallosphaera sedula) (Metallosphaera sedula DSM 5348) (protein)
chain: MELRKGLEDIAIKETSITYIDGELGRLYYRGYSIFDLASFSNFEEVAYLLWYGKLPTRHELDDFKSRLAEERSISEDISTFVKRTAKFGNPMDILRTTVSMMGLEDRSEGDLIGKAIKMTAKIPTIISLIQRTRRNQEFVEPDPSLSHSENFLYMIRGERPSPSDTRVLDVSLMLHMDHEMNASTMACLVVASTLSDIYSSVVAGISALKGPLHGGANSEALKQFMEIETPDNVEKYVMNKLSSGQRLMGFGHRIYKTMDPRAKILKEYANQLSKNEEIKRLFEIANRVEEIGIKILGKRGIYPNVDFYSGLVFYAMGFDPDLFPTIFASARVIGWTAHVDEYLKDNKLIRPKAIYVGDLGKRYVPIEER
notes: C-terminal 6xHis tag (pET-30a, NdeI/XhoI), E. coli BL21(DE3)-T1R; homodimer about 85 kDa; modelled domains Met1-Arg370; His214, His253, Asp307 catalytic
Purified protein [3]
  Km: 16.5 µM
  kcat: 8.56 s⁻¹
  kcat/Km: 519000 M⁻¹ s⁻¹
Purified protein [4]
  Km: 41.4 µM
  kcat: 7.62 s⁻¹
